The text below walks through data of US20200230115A1, “METHODS OF TREATING INFLUENZA-ASSOCIATED VIRAL PNEUMONIA” (priority 2017, published 2020).

The test system of one experiment is cytokines and chemokines. Kind of experiment: Multiplex analysis of inflammatory mediators in BALF and serum. The class given is in vivo, DBA/2J mice.
A further experiment relates to IL-6, TNFα, KC, MCP-1. The class given is in vivo.
Experiment [1] has as its system AECII. In words: Flow cytometry of dispersed lung cells (pro SP-C, Ki67, IAV-NP) after in vivo treatment. More on the design: species or system DBA/2J mice. In general terms: A flow cytometer gives signals particle by particle.
The subject of experiment [2] is AECII. The class given is cell-based, mice.

Read-outs that look alike come from different tables or passages of the source.

B1: KGF: keratinocyte growth factor, a potent pulmonary epithelial mitogen; cognate receptor FGFR2 (protein, UniProt P21781 32-194, looked up)
Fibroblast growth factor 7: CNDMTPEQMATNVNCSSPERHTRSYDYMEGGDIRVRRLFCRTQWYLRIDKRGKVKGTQEMKNNYNIMEIRTVAVGIVAIKGVESEFYLAMNKEGKLYAKKECNEDCNFKELILENHYNTYASAKWTHNGGEMFVALNQKGIPVRGKKTKKEQKTAHFLPMAIT
Consider B1, for which the “BAL IP10, MCP-5, TNFα, MIG, IL-6, MCP-1, G-CSF, M-CSF, IFNγ responses relative to PBS/IAV” value in the experiment with cytokines and chemokines (BALF, 72 h after IAV with 5 mg/kg KGF i.t.) was “modestly augmented”. The “serum inflammatory response to IAV (especially IP10, TNFα, MCP-1, IFNγ)” value in the experiment with cytokines and chemokines (serum, IAV with 5 mg/kg KGF i.t.) is “augmented the inflammatory response”. Besides, the “TNFα increase, KGF alone vs naive controls” value in the experiment on IL-6, TNFα, KC, MCP-1 (KGF treatment alone, 48 and 72 h postchallenge) was “two- to threefold increases”. Further, the “cytokine responses, KGF alone (other than TNFα)” value with IL-6, TNFα, KC, MCP-1 (KGF treatment alone, no IAV, any point) was “no effect”. Besides, in the experiment with IL-6, TNFα, KC, MCP-1 (whole-lung homogenates, 48 and 72 h, KGF coadministration with IAV), the “enhancement of IAV-induced IL-6, TNFα, KC, MCP-1 levels” value was 10-50%. The “fold increase in percentage of AECII proliferating vs PBS” value in the experiment on AECII [1] (48 h after i.t. KGF 5 mg/kg) was “more than sevenfold”. For the same molecule, in the experiment with AECII [1] (48 h after i.t. KGF 5 mg/kg, PBS-only mice 2%), the “percentage of AECII proliferating based on Ki67 staining” value is 14%. The “percentage of AECII infected (IAV-NP), time course” value in the experiment on AECII [1] (KGF 24, 48 or 120 h before 50,000 particles i.t. IAV, peak) is “peaked in dispersed lung cells from mice that had been pretreated with KGF 48 h before infection”. Moreover, the “mean channel fluorescence of IAV-NP (viral burden per cell), time course” value in the experiment with AECII [1] (KGF 24, 48 or 120 h before IAV, peak) is listed as “peaking in cells harvested at 48 h after KGF”. Besides, the “percentage of AECII infected (IAV-NP)” value in the experiment on AECII [1] (KGF 120 h before inoculum) is listed as “remained near PBS control levels”. Further, in the experiment with AECII [1] (mouse, in vivo), the “mean channel fluorescence of IAV-NP (viral burden per cell)” value was “remaining close to PBS control levels”; the “percentage of AECII infected vs PBS control mice” value is “significantly greater”; the “percentage of AECII proliferating (Ki67)” value was “remaining similar to PBS control levels”; the “percentage of AECII proliferating (Ki67), time course” value is “peaking in cells isolated from mice that had been dosed with KGF 48 h before PBS challenge”. In the experiment on AECII [2], the “MCF per cell for IAV-NP” value is listed as “returning to baseline”; the “mean fluorescence intensity of IAV-NP staining, Ki67 high vs Ki67 low” value is “greater in the Ki67 high (proliferating) than the Ki67 low (nonproliferating) population”; the “peak in expression of viral protein M1 (Western blot)” value is “occurred in AECII that were isolated 48 h after in vivo KGF challenge”; the “percentage of AECII infected after ex vivo IAV incubation” value is given as “remained near baseline levels”. In the experiment on AECII [2], the “percentage of AECII infected after ex vivo IAV incubation, time course” value is “highest in cells harvested 48 h after in vivo KGF treatment”; the “percentage of AECII proliferating (Ki67)” value was “returned to near baseline”; the “percentage of AECII proliferating (Ki67), time course” value was “peaked at 48 h”. Moreover, in the experiment on AECII [2] (ex vivo IAV 18 h, peak), the “MCF per cell for IAV-NP, time course” value was “peaking in cells harvested at 48 h post KGF”.
